Results published in US11584938B2, “Plant EPSPS mutant containing L195P and S247G mutations and encoding gene and use thereof” (GEVOTO LLC, priority 2017, dated 2023).
“Also recorded” adds a separate entry of the source.

Test system: double knockout E. coli (EPSPS defective E. coli, EDCE)
Experiment: growth of EPSPS defective E. coli transformed by the EPSPS gene in M9 culture media containing different glyphosate concentrations
Type: cell-based, E. coli DH5α
Settings: for EPSPS enzyme activity: concluded from growth of defective E. coli at 0 mM glyphosate
Source text: A method for detecting the glyphosate resistance of the soybean EPSPS mutant G1 provided in Example 1 and the soybean EPSPS mutant G3 provided in Example 2 is as follows:
according to the sequence of the nucleic acid molecule provided in the example, synthesizing the encoding gene that encodes the soybean EPSPS mutant G1 or G3 using a chemical synthesis method, introducing enzyme sites (Pac1 and Sbf1) at two ends thereof, connecting to an expression vector (for example, a pADV5 vector, the structure of which is as shown in FIG. 15) that has undergone the same restriction enzyme digestion treatment under the action of ligase after restriction enzyme digestion, then transforming double knockout E. coli, picking positive colonies after verification, inoculating the positive colonies to M9 culture media containing different glyphosate concentrations for growth, and observing the growth situation of the E. coli.
The wild-type soybean EPSPS (with an amino acid sequence represented by SEQ ID NO: 2 and an encoding gene sequence represented by SEQ ID NO: 1) and the soybean EPSPS mutant G2 (with an amino acid sequence represented by SEQ ID NO: 6, and a corresponding encoding gene sequence represented by SEQ ID NO: 5) merely containing the mutation P114(101)S were taken as controls.
In the above, the M9 basal culture medium can be prepared by the following method:
5×M9 salt solution: 6.78 g of Na2HPO4, 3.0 g of KH2PO4, 0.5 g of NaCl, and 1.0 g of NH4Cl were weighed, added with ddH2O to 200 ml, and subjected to high-temperature and high-pressure sterilization treatment;
20% glucose: 20 g of glucose was weighed, added with 80 ml of ddH2O for dissolving, diluted to 100 ml, and subjected to filtration and sterilization treatment;
1.0 M MgSO4: 24.6 g of MgSO4-7H2O was weighed, dissolved with 80 ml of ddH2O, diluted to 100 ml, and subjected to sterilization treatment;
1.0 M CaCl2: 11.1 g of CaCl2 was weighed, dissolved with 80 ml of ddH2O, diluted to 100 ml, and subjected to sterilization treatment; and
1000 ml of the M9 basal culture media were prepared by adding ddH2O to 200 ml of 5×M9 salt solution, 20 ml of 20% glucose, 2 ml of 1.0 M MgSO4 and 0.1 ml of 1.0 M CaCl2 to make up to 1000 ml.
In the above, the E. coli used was double knockout E. coli, namely, EPSPS defective E. coli (E. coli DH5α with EPSPS gene and C-P Lyase gene being knocked out, named as EDCE, wherein for a preparation method thereof, reference can be made to a Chinese invention patent with the filing number CN2016103256926).
The glyphosate resistance of the soybean EPSPS mutant G4 provided in Example 3 and the soybean EPSPS mutant G5 provided in Example 4 was verified with reference to the detection method in Experiment Example 1.
The wild-type wheat EPSPS (with an amino acid sequence represented by SEQ ID NO: 14, and a corresponding encoding gene sequence represented by SEQ ID NO: 13) and the wheat EPSPS mutant T2 (with an amino acid sequence represented by SEQ ID NO: 18, and a corresponding encoding gene sequence represented by SEQ ID NO: 17) merely containing the mutation P118(101)S were taken as controls to verify the glyphosate resistance of the wheat EPSPS mutants T1 and T3 provided in Example 5 and Example 6, and reference can be made to Experiment Example 1 for the method.
A method for verifying the glyphosate resistance of the wheat EPSPS mutants T4, T5, and T6 provided in Examples 7-9 is the same as that in Experiment Example 3.
The wild-type rice EPSPS R0 (with an amino acid sequence represented by SEQ ID NO: 28, and a corresponding encoding gene sequence represented by SEQ ID NO: 27) and the rice EPSPS mutant R2 (with an amino acid sequence represented by SEQ ID NO: 32, and a corresponding encoding gene sequence represented by SEQ ID NO: 31) merely containing the mutation P116(101)S were taken as controls to verify the glyphosate resistance of the rice EPSPS mutants R1 and R3 provided in Examples 10 and 11, and reference can be made to Experiment Example 1 for the method. […]

[1] = culture media containing 0 mM glyphosate
[2] = culture media containing 10 mM glyphosate
[3] = culture media containing 20 mM glyphosate

B1: R1: rice EPSPS mutant, SEQ ID NO: 30, mutation L214(195)P (protein)
chain: MASNAAAAAAKAEEIVLQPIREISGAVQLPGSKSLSNRILLLSALSEGTTVVDNLLNSEDVHYMLEALKALGLSVEADKVAKRAVVVGCGGKFPVEKDAKEEVQLFLGNAGTAMRPLTAAVTAAGGNATYVLDGVPRMRERPIGDLVVGLKQLGADVDCFLGTECPPVRVKGIGGLPGGKVKLSGSISSQYLSALLMAAPLALGDVEIEIIDKPISIPYVEMTLRLMERFGVKAEHSDSWDRFYIKGGQKYKSPGNAYVEGDASSASYFLAGAAITGGTVTVQGCGTTSLQGDVKFAEVLEMMGAKVTWTDTSVTVTGPPREPYGKKHLKAVDVNMNKMPDVAMTLAVVALFADGPTAIRDVASWRVKETERMVAIRTELTKLGASVEEGPDYCIITPPEKLNITAIDTYDDHRMAMAFSLAACADVPVTIRDPGCTRKTFPNYFDVLSTFVRN
  EPSPS enzyme activity: normal EPSPS enzyme activity
[1]
  growth of the E. coli transformed by the EPSPS: could grow
Culture media containing 5 mM glyphosate
  growth of the E. coli transformed by the EPSPS: could grow normally
[2]
  growth of the E. coli transformed by the EPSPS: grew obviously; also recorded: could grow normally
[3]
  growth of the E. coli transformed by the EPSPS: grew obviously

B2: R5: rice EPSPS mutant, SEQ ID NO: 38, mutations S267(247)G and P116(101)S (protein)
chain: MASNAAAAAAKAEEIVLQPIREISGAVQLPGSKSLSNRILLLSALSEGTTVVDNLLNSEDVHYMLEALKALGLSVEADKVAKRAVVVGCGGKFPVEKDAKEEVQLFLGNAGTAMRSLTAAVTAAGGNATYVLDGVPRMRERPIGDLVVGLKQLGADVDCFLGTECPPVRVKGIGGLPGGKVKLSGSISSQYLSALLMAAPLALGDVEIEIIDKLISIPYVEMTLRLMERFGVKAEHSDSWDRFYIKGGQKYKSPGNAYVEGDASSAGYFLAGAAITGGTVTVQGCGTTSLQGDVKFAEVLEMMGAKVTWTDTSVTVTGPPREPYGKKHLKAVDVNMNKMPDVAMTLAVVALFADGPTAIRDVASWRVKETERMVAIRTELTKLGASVEEGPDYCIITPPEKLNITAIDTYDDHRMAMAFSLAACADVPVTIRDPGCTRKTFPNYFDVLSTFVRN
  EPSPS enzyme activity: normal EPSPS enzyme activity
[1]
  growth of the E. coli transformed by the EPSPS: could grow
[3]
  growth of the E. coli transformed by the EPSPS: could grow
  growth of the transformed E. coli compared with E. coli transformed by the control EPSPS named in the value: obviously superior to that of the E. coli transformed by R2

B3: R3: rice EPSPS mutant, SEQ ID NO: 34, mutations L214(195)P and P116(101)S (protein)
chain: MASNAAAAAAKAEEIVLQPIREISGAVQLPGSKSLSNRILLLSALSEGTTVVDNLLNSEDVHYMLEALKALGLSVEADKVAKRAVVVGCGGKFPVEKDAKEEVQLFLGNAGTAMRSLTAAVTAAGGNATYVLDGVPRMRERPIGDLVVGLKQLGADVDCFLGTECPPVRVKGIGGLPGGKVKLSGSISSQYLSALLMAAPLALGDVEIEIIDKPISIPYVEMTLRLMERFGVKAEHSDSWDRFYIKGGQKYKSPGNAYVEGDASSASYFLAGAAITGGTVTVQGCGTTSLQGDVKFAEVLEMMGAKVTWTDTSVTVTGPPREPYGKKHLKAVDVNMNKMPDVAMTLAVVALFADGPTAIRDVASWRVKETERMVAIRTELTKLGASVEEGPDYCIITPPEKLNITAIDTYDDHRMAMAFSLAACADVPVTIRDPGCTRKTFPNYFDVLSTFVRN
  EPSPS enzyme activity: normal EPSPS enzyme activity
[1]
  growth of the E. coli transformed by the EPSPS: could grow
[2]
  growth of the E. coli transformed by the EPSPS: could grow
  growth of the transformed E. coli compared with E. coli transformed by the control EPSPS named in the value: superior to that of the E. coli transformed by R2

B4: R2: rice EPSPS mutant, SEQ ID NO: 32, merely containing the mutation P116(101)S; control (protein)
chain: MASNAAAAAAKAEEIVLQPIREISGAVQLPGSKSLSNRILLLSALSEGTTVVDNLLNSEDVHYMLEALKALGLSVEADKVAKRAVVVGCGGKFPVEKDAKEEVQLFLGNAGTAMRSLTAAVTAAGGNATYVLDGVPRMRERPIGDLVVGLKQLGADVDCFLGTECPPVRVKGIGGLPGGKVKLSGSISSQYLSALLMAAPLALGDVEIEIIDKLISIPYVEMTLRLMERFGVKAEHSDSWDRFYIKGGQKYKSPGNAYVEGDASSASYFLAGAAITGGTVTVQGCGTTSLQGDVKFAEVLEMMGAKVTWTDTSVTVTGPPREPYGKKHLKAVDVNMNKMPDVAMTLAVVALFADGPTAIRDVASWRVKETERMVAIRTELTKLGASVEEGPDYCIITPPEKLNITAIDTYDDHRMAMAFSLAACADVPVTIRDPGCTRKTFPNYFDVLSTFVRN
  EPSPS enzyme activity: normal EPSPS enzyme activity
[1]
  growth of the E. coli transformed by the EPSPS: could grow
[2]
  growth of the E. coli transformed by the EPSPS: could grow
[3]
  growth of the E. coli transformed by the EPSPS: could grow

B5: R4: rice EPSPS mutant, SEQ ID NO: 36, mutation S267(247)G (protein)
chain: MASNAAAAAAKAEEIVLQPIREISGAVQLPGSKSLSNRILLLSALSEGTTVVDNLLNSEDVHYMLEALKALGLSVEADKVAKRAVVVGCGGKFPVEKDAKEEVQLFLGNAGTAMRPLTAAVTAAGGNATYVLDGVPRMRERPIGDLVVGLKQLGADVDCFLGTECPPVRVKGIGGLPGGKVKLSGSISSQYLSALLMAAPLALGDVEIEIIDKLISIPYVEMTLRLMERFGVKAEHSDSWDRFYIKGGQKYKSPGNAYVEGDASSAGYFLAGAAITGGTVTVQGCGTTSLQGDVKFAEVLEMMGAKVTWTDTSVTVTGPPREPYGKKHLKAVDVNMNKMPDVAMTLAVVALFADGPTAIRDVASWRVKETERMVAIRTELTKLGASVEEGPDYCIITPPEKLNITAIDTYDDHRMAMAFSLAACADVPVTIRDPGCTRKTFPNYFDVLSTFVRN
  EPSPS enzyme activity: normal EPSPS enzyme activity
[1]
  growth of the E. coli transformed by the EPSPS: could grow
[2]
  growth of the E. coli transformed by the EPSPS: could grow normally
  growth of the transformed E. coli compared with E. coli transformed by the control EPSPS named in the value: superior to that of the E. coli transformed by R1
[3]
  growth of the E. coli transformed by the EPSPS: grew obviously

B6: R6: rice EPSPS mutant, SEQ ID NO: 40, mutations S267(247)G, L214(195)P and P116(101)S (protein)
chain: MASNAAAAAAKAEEIVLQPIREISGAVQLPGSKSLSNRILLLSALSEGTTVVDNLLNSEDVHYMLEALKALGLSVEADKVAKRAVVVGCGGKFPVEKDAKEEVQLFLGNAGTAMRSLTAAVTAAGGNATYVLDGVPRMRERPIGDLVVGLKQLGADVDCFLGTECPPVRVKGIGGLPGGKVKLSGSISSQYLSALLMAAPLALGDVEIEIIDKPISIPYVEMTLRLMERFGVKAEHSDSWDRFYIKGGQKYKSPGNAYVEGDASSAGYFLAGAAITGGTVTVQGCGTTSLQGDVKFAEVLEMMGAKVTWTDTSVTVTGPPREPYGKKHLKAVDVNMNKMPDVAMTLAVVALFADGPTAIRDVASWRVKETERMVAIRTELTKLGASVEEGPDYCIITPPEKLNITAIDTYDDHRMAMAFSLAACADVPVTIRDPGCTRKTFPNYFDVLSTFVRN
  EPSPS enzyme activity: normal EPSPS enzyme activity
[1]
  growth of the E. coli transformed by the EPSPS: could grow
[3]
  growth of the E. coli transformed by the EPSPS: could grow
  growth of the transformed E. coli compared with E. coli transformed by the control EPSPS named in the value: superior to that of the E. coli transformed by R2
